Measured values published in patent US20140171373A1 (REGENTS OF THE UNIVERSITY OF MINNESOTA, published 2014).

Columns and labels:
Experiment in all cases: competitive binding assay (PROMEGA-GLO 2)
caspase-3 = molecular target: T1, caspase-3 (UniProt P42574 29-277, limits assumed)
T1 sequence (looked up): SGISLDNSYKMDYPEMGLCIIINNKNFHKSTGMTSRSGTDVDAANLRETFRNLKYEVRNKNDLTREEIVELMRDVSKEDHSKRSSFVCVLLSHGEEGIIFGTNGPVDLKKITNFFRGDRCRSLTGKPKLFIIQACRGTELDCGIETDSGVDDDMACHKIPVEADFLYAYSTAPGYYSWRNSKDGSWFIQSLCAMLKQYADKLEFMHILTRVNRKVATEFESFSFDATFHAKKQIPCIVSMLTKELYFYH

caspase-6 = molecular target: T2, caspase-6 (UniProt P55212 24-179; P55212 194-293, limits assumed)
T2 sequence (looked up) 1: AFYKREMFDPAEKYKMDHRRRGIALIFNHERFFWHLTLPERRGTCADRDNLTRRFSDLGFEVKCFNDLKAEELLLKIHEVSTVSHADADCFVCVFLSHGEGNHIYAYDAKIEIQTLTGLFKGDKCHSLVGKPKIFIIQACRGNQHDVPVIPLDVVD
T2 sequence (looked up) 2: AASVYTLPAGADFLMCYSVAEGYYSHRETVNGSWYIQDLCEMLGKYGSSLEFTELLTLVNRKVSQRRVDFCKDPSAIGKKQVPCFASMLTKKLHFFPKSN

caspase-2 = molecular target: T3, caspase-2 (UniProt P42575 170-325; P42575 334-452, limits assumed)
T3 construct: also called recombinant caspase-2
T3 sequence (looked up) 1: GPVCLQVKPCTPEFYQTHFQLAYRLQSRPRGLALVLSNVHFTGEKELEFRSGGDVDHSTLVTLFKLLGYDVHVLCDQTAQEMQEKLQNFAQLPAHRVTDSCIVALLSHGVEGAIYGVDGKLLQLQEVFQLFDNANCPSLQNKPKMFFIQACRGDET
T3 sequence (looked up) 2: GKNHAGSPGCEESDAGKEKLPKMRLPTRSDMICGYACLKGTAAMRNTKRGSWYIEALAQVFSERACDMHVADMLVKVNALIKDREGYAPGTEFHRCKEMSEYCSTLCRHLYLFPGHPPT

B1: Ac-YKPVD-CHO (SEQ ID NO: 1) (peptide)
peptide: Ac-YKPVD-aldehyde
SMILES: CC(=O)N[C@@H](Cc1ccc(O)cc1)C(=O)N[C@@H](CCCCN)C(=O)N1CCC[C@H]1C(=O)N[C@H](C(=O)N[C@H](C=O)CC(=O)O)C(C)C
notes: Designed to mimic the caspase-2 cleavage site of tau; also called parent pentapeptide; Tyr-Lys-Pro-Val-Asp
Ki (caspase-3): 19.8 µM | Ki (caspase-6): 184 µM | Ki (caspase-2): 0.2 µM
